± gives the standard error. Variants at the floor of the assay were thinned out. Some results are limits rather than exact numbers.

The source of these data is the supplement of paper PMC7125110.

Sequences and labels used below:
B1: glmS ribozyme (parent)
chain: AUAAAAGCGCCAGAACUACAGAAAUGUAGUUGACGAGGAGGAGGUUUAUCGAAUUUUCGGCGGAUGCCUCCAAA

Common to all, as to settings: with glucosamine-6-phosphate
Variants of B1 are the subject of series [1]. As to the kind of experiment: self-cleavage kobs at 40 uM GlcN6P; higher = faster cleavage; RNA array. Put shortly:
(§1)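 E. coli RNA polymerase transcribed barcoded ribozyme variants in situ on sequenced MiSeq chips, which were tracked via a hybridised Cy3 probe at 37 °C. Tiles were imaged over ~14 h after glucosamine-6-phosphate (40 μM to 10 mM) in HEPES/KCl/Mg(OAc)2 buffer was flowed in. Normalised per-tile medians were fit to one- or two-exponential decays for kobs, and kcat and KM came from weighted Michaelis–Menten fits.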

In series [2] the parent is B1. The experiment in a line: self-cleavage kobs at 10000 uM GlcN6P; higher = faster cleavage; RNA array. Put shortly:
as §1

In series [3] the parent is B1. The experiment in a line: self-cleavage kobs at 160 uM GlcN6P; higher = faster cleavage; RNA array. Put shortly: as §1
The variants in series [4] derive from B1. The experiment in a line: self-cleavage kobs at 640 uM GlcN6P; higher = faster cleavage; RNA array. The method, boiled down:
as §1

In series [5] the parent is B1. As to the kind of experiment: self-cleavage kobs at 2500 uM GlcN6P; higher = faster cleavage; RNA array. Put shortly: as §1

Regarding AUAAAAGCGCCAGAACUACAGAAAUGUAGACGACGAGGAGGAGGUUUAUGGAAUUGUCGGGGGAUGCCUCCAAA, the “self-cleavage kobs at 40 uM GlcN6P” value in the series with glucosamine-6-phosphate [1] was 3.8e-05 ± 1.5e-05 s⁻¹.

As to AUAAAAGCGCCAGAACUACAGAAAUGUAGUUGACGAGGAGGAGGUUUAUGGAAUUUUCGGCGCAUGCCUCUAAA, in the series with glucosamine-6-phosphate [1], the “self-cleavage kobs at 40 uM GlcN6P” value was determined as 7.02e-05 ± 2.9e-05 s⁻¹.

Consider AUAAAAGUGCCAGAACUACAGAAAUGUAGUUGACGAGGAGGAAGUUUAUCGAAUUCUCGGCGGAUGCCUCCAAA, for which, in the series with glucosamine-6-phosphate [1], the “self-cleavage kobs at 40 uM GlcN6P” value was less than 1e-05 s⁻¹. In addition, in the series with glucosamine-6-phosphate [2], the “self-cleavage kobs at 10000 uM GlcN6P” value is less than 1e-05 s⁻¹.

As to AUAAAAGCGCCAGAACUACAGAAAUGUAGUUGACCAGGAGGAGGUUUAUCGAAUUUUCGGCGGACGCCUCCAAA, the “self-cleavage kobs at 40 uM GlcN6P” value with glucosamine-6-phosphate [1] is less than 1e-05 s⁻¹. Also, in the series with glucosamine-6-phosphate [3], the “self-cleavage kobs at 160 uM GlcN6P” value was less than 1e-05 s⁻¹. Besides, in the series with glucosamine-6-phosphate [4], the “self-cleavage kobs at 640 uM GlcN6P” value is less than 1e-05 s⁻¹. Moreover, the “self-cleavage kobs at 2500 uM GlcN6P” value in the series with glucosamine-6-phosphate [5] is less than 1e-05 s⁻¹. Further, the “self-cleavage kobs at 10000 uM GlcN6P” value with glucosamine-6-phosphate [2] is less than 1e-05 s⁻¹.

Turning to AUAAAAGCGCCCGAACUACAGAAAUGUAGUUAACGAGGAGGAGCUUUAUCGAAUUUUCGGCGGAUGCCUCCAAA, the “self-cleavage kobs at 40 uM GlcN6P” value with glucosamine-6-phosphate [1] was less than 1e-05 s⁻¹. In addition, the “self-cleavage kobs at 2500 uM GlcN6P” value in the series with glucosamine-6-phosphate [5] was less than 1e-05 s⁻¹.

For the variant AUAAAAGCGCCAGAACUACAGAAAUGUAGCUGACGAGGAGGAGGUUUAUCCAAUUUUCGGCGGAUGCCUCCAAA, in the series with glucosamine-6-phosphate [1], the “self-cleavage kobs at 40 uM GlcN6P” value is less than 1e-05 s⁻¹. Further, in the series with glucosamine-6-phosphate [2], the “self-cleavage kobs at 10000 uM GlcN6P” value is less than 1e-05 s⁻¹.

As for AUAAAAGCGCCAGAACUACAGAAAUGUAGUUGACGAGGAGGAGGUUUAUCGAAUUUUCGGCGGAUGCCUCUAAA, in the series with glucosamine-6-phosphate [1], the “self-cleavage kobs at 40 uM GlcN6P” value turned out to be 0.00128 ± 3.7e-05 s⁻¹. Also, the “self-cleavage kobs at 160 uM GlcN6P” value in the series with glucosamine-6-phosphate [3] stood at 0.00366 ± 0.00023 s⁻¹. Besides, the “self-cleavage kobs at 640 uM GlcN6P” value with glucosamine-6-phosphate [4] turned out to be 0.00716 ± 0.00034 s⁻¹. The “self-cleavage kobs at 2500 uM GlcN6P” value in the series with glucosamine-6-phosphate [5] was 0.0256 ± 0.0014 s⁻¹. Also, in the series with glucosamine-6-phosphate [2], the “self-cleavage kobs at 10000 uM GlcN6P” value came to 0.0553 ± 0.0027 s⁻¹.

Consider AUAAAAGCGCCAGAACUACAGAAAUGUAGUUGCCGAGGAGGAGGUUUAUCAAAUUUUCGGCGGAUACCUGCAAA, for which the “self-cleavage kobs at 40 uM GlcN6P” value with glucosamine-6-phosphate [1] is less than 1e-05 s⁻¹.

In the case of AUAAAGGCGCCAGAACUACAGAAAUGUAGUUGACGCGGAGUAGGUUUAUCGAAUUUUCGGCGGAUGCCUCCAAA, the “self-cleavage kobs at 40 uM GlcN6P” value in the series with glucosamine-6-phosphate [1] was less than 1e-05 s⁻¹. Further, the “self-cleavage kobs at 640 uM GlcN6P” value in the series with glucosamine-6-phosphate [4] was less than 1e-05 s⁻¹. Moreover, the “self-cleavage kobs at 10000 uM GlcN6P” value in the series with glucosamine-6-phosphate [2] is less than 1e-05 s⁻¹.

Regarding AUAAAAGCGCCAGAAAUACAGAAAUGUAGUUCACGAGGAGCAGGUUUAUCGAAUUUUCGGCGGAUGCUUAUAAA, the “self-cleavage kobs at 40 uM GlcN6P” value with glucosamine-6-phosphate [1] is less than 1e-05 s⁻¹.

AUAAAAGCACCAGAACUACAGAAAUGUAGUUGACGAGGAGGAUGUUUAUCGAAUUUUCGGCGGAUGCCUCCAAA: in the series with glucosamine-6-phosphate [1], the “self-cleavage kobs at 40 uM GlcN6P” value was less than 1e-05 s⁻¹. Besides, in the series with glucosamine-6-phosphate [3], the “self-cleavage kobs at 160 uM GlcN6P” value is less than 1e-05 s⁻¹. In the series with glucosamine-6-phosphate [4], the “self-cleavage kobs at 640 uM GlcN6P” value is less than 1e-05 s⁻¹. The “self-cleavage kobs at 2500 uM GlcN6P” value with glucosamine-6-phosphate [5] was less than 1e-05 s⁻¹.

For AUAAAAGCGCCAGAACUACAGAAAUGUAGUUGACGAGGAGGAGGUUUAUUUAAUUUUCGGCGGAUGCCUCCAAA, in the series with glucosamine-6-phosphate [1], the “self-cleavage kobs at 40 uM GlcN6P” value is less than 1e-05 s⁻¹. Also, in the series with glucosamine-6-phosphate [2], the “self-cleavage kobs at 10000 uM GlcN6P” value is less than 1e-05 s⁻¹.

As for AUAAAAGCGCCAGAACUACAGAAAUGUAGUUGACGAGAAGGAGGCUUAUCGAAUUUUCGGCGGAUGCCUCCAAA, the “self-cleavage kobs at 40 uM GlcN6P” value in the series with glucosamine-6-phosphate [1] is less than 1e-05 s⁻¹. Besides, the “self-cleavage kobs at 160 uM GlcN6P” value with glucosamine-6-phosphate [3] was less than 1e-05 s⁻¹. Besides, the “self-cleavage kobs at 640 uM GlcN6P” value in the series with glucosamine-6-phosphate [4] is less than 1e-05 s⁻¹. In addition, the “self-cleavage kobs at 2500 uM GlcN6P” value with glucosamine-6-phosphate [5] was less than 1e-05 s⁻¹. Further, the “self-cleavage kobs at 10000 uM GlcN6P” value in the series with glucosamine-6-phosphate [2] is less than 1e-05 s⁻¹.

Turning to AUAAAAGCGCCAGAACUACAGAAAUGUAGUGGACGAGGAGGAGGUUUAUCGAAUUUUCGGAGGAUGCCUCCAAA, the “self-cleavage kobs at 40 uM GlcN6P” value with glucosamine-6-phosphate [1] was less than 1e-05 s⁻¹. Besides, the “self-cleavage kobs at 160 uM GlcN6P” value with glucosamine-6-phosphate [3] is less than 1e-05 s⁻¹. Also, the “self-cleavage kobs at 2500 uM GlcN6P” value in the series with glucosamine-6-phosphate [5] was less than 1e-05 s⁻¹. For the same variant, the “self-cleavage kobs at 10000 uM GlcN6P” value with glucosamine-6-phosphate [2] is less than 1e-05 s⁻¹.

In the case of AUAAAAGCGCAAGACCUACAGAAAUGUAGUUGACGAGGAGGAGGGUUAUCGAAUUUUCGGCGGAUGCCUUCAAA, the “self-cleavage kobs at 40 uM GlcN6P” value with glucosamine-6-phosphate [1] was less than 1e-05 s⁻¹.
